FireProtDB (doi:10.1016/j.bpc.2006.10.013)

Settings: Clostridium pasteurianum; pH 9.08; Thermal; NMR; Sodium borate 100 mM; reversible: Yes; whole UniProt chain shown

B1: Rubredoxin wild type, P00268 (protein)
chain: MKKYTCTVCGYIYNPEDGDPDNGVNPGTDFKDIPDDWVCPLCGVGKDQFEEVEE
For B1, the Tm was 107 °C, the “heat capacity change of unfolding” value was 0.5 kcal/mol/K and the “unfolding enthalpy (van 't Hoff)” value was 259 kJ/mol.
